From patent publication US20240279328A1 (Johns Hopkins, published 2024) come the findings set out here.

Where two headings read alike, the source gives them in different places.

For assay [1], the target named is T1, human Interleukin-2 (human, UniProt P60568 21-153, biotinylated (site not stated) when immobilised on streptavidin biosensors; soluble in the competition studies). Briefly: cell-based or functional assay.
Assay [2] addresses T1, human Interleukin-2. Description: BLI, kinetic KD, immobilised human IL-2, soluble antibody. In general terms: Biolayer interferometry detects binding as a change in optical thickness at a sensor tip.
For assay [3], the target named is T1, human Interleukin-2. Description: BLI (Octet), immobilised human IL-2, soluble antibody, 1:1 Langmuir fit.
Assay [4] deals with T1, human Interleukin-2. Briefly: BLI, equilibrium KD from titration curve, immobilised human IL-2, soluble antibody.
Assay [5] addresses T1, human Interleukin-2. Briefly: cell-based or functional assay. This is another data set of the same source.
Assay [6] has as its target T1, human Interleukin-2. Briefly: BLI, kinetic KD, immobilised human IL-2, soluble antibody. How it is done:
(§1) Biolayer interferometry binding studies: Binding studies were performed via bio-layer interferometry using an OctetRED96® biolayer interferometry instrument (Sartorius). […] Once baseline measurements were collected in PBSA, binding kinetics were measured by submerging the biosensors in wells containing serial dilutions of the appropriate analytes for 300 s (association) followed by submerging the biosensor in wells containing only PBSA for 500 s (dissociation). […] An irrelevant protein (the monoclonal antibody ipilimumab) was used as a control for nonspecific binding. Tips were regenerated in 0.1 M glycine pH 2.7. Data was processed and kinetic parameters were calculated using the Octet® Data Analysis software version 7.1 (Sartorius), assuming a 1:1 Langmuir binding model. Equilibrium binding was determined by total response measured after 295 s. Equilibrium titration curve fitting and KD value determination was implemented using GraphPad Prism, assuming all binding interactions to be first order.
The source holds these as a separate data set.

Assay [7] addresses T1, human Interleukin-2. Description: BLI, equilibrium KD from titration curve, immobilised human IL-2, soluble antibody. On the procedure: as §1
The source holds these as a separate data set.

The target in assay [8] is T1, human Interleukin-2. Description: BLI (Octet), biotinylated human IL-2 on streptavidin sensors, soluble antibody, 1:1 Langmuir fit. On the procedure: as §1
Assay [9] concerns the target T1, human Interleukin-2. Briefly: BLI (Octet), biotinylated human IL-2 immobilised on streptavidin tip, soluble antibody titrated, normalized equilibrium response. On the procedure:
Error bars represent s.d.
as §1, with “model.” for “model. Equilibrium binding was determined by total response measured after 295 s. Equilibrium titration curve fitting and KD value determination was implemented using GraphPad Prism, assuming all binding interactions to be first order.”

T1 sequence (P60568 21-153 limits assumed): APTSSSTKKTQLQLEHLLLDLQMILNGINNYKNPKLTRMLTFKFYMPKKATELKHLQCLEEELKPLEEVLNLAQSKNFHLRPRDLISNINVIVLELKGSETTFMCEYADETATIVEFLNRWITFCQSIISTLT

B1: F5111 M1 glycovariant (N-glycosylation site inserted in the heavy chain) (antibody, human IgG1, lambda)
heavy: not shown
light: GSNFMLTQPHSVSESPGKTVTISCTRSSGSIASNYVQWYQQRPGSSPTTVIYEDNQRPSGVPDRFSGSIDSSSNSASLTISGLKTEDEADYYCQSYDSSNVVFGGGTKLTVLGQPKAAPSVTLFPPSSEELQANKATLVCLISDFYPGAVTVAWKADSSPVKAGVETTTPSKQSNNKYAASSYLSLTPEQWKSHRSYSCQVTHEGSTVEKTVAPTECS
modifications: inserted N-linked glycosylation site (position shown only in a drawing)
As usually defined, the Kd is the equilibrium constant for the complex coming apart. A higher Kd goes with lower affinity. As usually defined, the koff is the rate constant with which the complex falls apart. Lower therefore signals a long-lived complex. One may read the kon as the second-order rate constant of association. A high value points to fast association. With B1, in the assay with human Interleukin-2 [1], the “YT+ EC50 (STAT5 phosphorylation, IL-2Rα+ YT-1 cells)” value (“YT+ EC50” for short) was found to be 0.043 nM and the “YT- EC50 (STAT5 phosphorylation, IL-2Rα- YT-1 cells)” value (“YT- EC50” below) was determined as 0.89 nM. The same molecule yielded a Kd in the assay with human Interleukin-2 [2] of 1.1 nM. In the assay with human Interleukin-2 [3], the koff amounted to 0.00038 s⁻¹ and the kon was determined as 330000 M⁻¹ s⁻¹. The molecule further came in with a Kd with human Interleukin-2 [4] of 7.8 nM.

B2: F5111 M2 glycovariant (N-glycosylation site inserted in the heavy chain) (antibody, human IgG1, lambda, V domains shown)
VH: QLQLQESGPGLVKPSQTLSLTCTVSGGSISSGGYYWSWIRQHPGKGLEWIGYIYYSGSTYYNPSLKSRVTISVDTSKNQFSLKLSNVTAADTAVYYCARTPTVTGDWFDPWGRGTLVTVSS
VL: SNFMLTQPHSVSESPGKTVTISCTRSSGSIASNYVQWYQQRPGSSPTTVIYEDNQRPSGVPDRFSGSIDSSSNSASLTISGLKTEDEADYYCQSYDSSNVVFGGGTKLTVLG
modifications: inserted N-linked glycosylation site (position shown only in a drawing)
Consider B2, for which, in the assay with human Interleukin-2 [1], the “YT+ EC50” value was 0.098 nM and the “YT- EC50” value worked out at 0.44 nM. Further, binding in the assay with human Interleukin-2 [2] was put at a Kd of 0.76 nM. In the assay with human Interleukin-2 [3], the koff came out at 0.00021 s⁻¹ and the kon was 270000 M⁻¹ s⁻¹. The molecule further had a Kd in the assay with human Interleukin-2 [4] of 9.6 nM.

B3: F5111 M4 glycovariant (N-glycosylation site inserted in the light chain) (antibody, human IgG1, lambda, V domains shown)
VH: QLQLQESGPGLVKPSQTLSLTCTVSGGSISSGGYYWSWIRQHPGKGLEWIGYIYYSGSTYYNPSLKSRVTISVDTSKNQFSLKLSSVTAADTAVYYCARTPTVTGDWFDPWGRGTLVTVSS
VL: SNFMLTQPHSVSESPGKTVTISCTRSSGSIASNYVQWYQQRPGSSPTTVIYEDNQRPSGVPDRFSGSINSSSNSASLTISGLKTEDEADYYCQSYDSSNVVFGGGTKLTVLG
modifications: inserted N-linked glycosylation site (position shown only in a drawing)
As for B3, in the assay with human Interleukin-2 [1], the “YT+ EC50” value turned out to be 0.17 nM and the “YT- EC50” value was found to be 0.52 nM. In the assay with human Interleukin-2 [2], this molecule had a Kd of 0.5 nM. Besides, in the assay with human Interleukin-2 [3], the koff was 0.00014 s⁻¹ and the kon was found to be 270000 M⁻¹ s⁻¹. The molecule further showed a Kd with human Interleukin-2 [4] of 9.7 nM.

B4: F5111 M3 glycovariant (N-glycosylation site inserted in the heavy chain) (antibody, human IgG1, lambda)
heavy: not shown
light: GSNFMLTQPHSVSESPGKTVTISCTRSSGSIASNYVQWYQQRPGSSPTTVIYEDNQRPSGVPDRFSGSIDSSSNSASLTISGLKTEDEADYYCQSYDSSNVVFGGGTKLTVLGQPKAAPSVTLFPPSSEELQANKATLVCLISDFYPGAVTVAWKADSSPVKAGVETTTPSKQSNNKYAASSYLSLTPEQWKSHRSYSCQVTHEGSTVEKTVAPTECS
modifications: inserted N-linked glycosylation site (position shown only in a drawing)
For the molecule B4, in the assay with human Interleukin-2 [1], the “YT+ EC50” value came out at 0.089 nM and the “YT- EC50” value was 0.39 nM. This molecule also had a Kd with human Interleukin-2 [2] of 0.55 nM. In the assay with human Interleukin-2 [3], this molecule showed a koff of 0.00017 s⁻¹ and a kon of 310000 M⁻¹ s⁻¹. The same molecule had a Kd in the assay with human Interleukin-2 [4] of 8.3 nM.

B5: F5111 M5 glycovariant (N-glycosylation site inserted in the light chain) (antibody, human IgG1, lambda, V domains shown)
VH: QLQLQESGPGLVKPSQTLSLTCTVSGGSISSGGYYWSWIRQHPGKGLEWIGYIYYSGSTYYNPSLKSRVTISVDTSKNQFSLKLSSVTAADTAVYYCARTPTVTGDWFDPWGRGTLVTVSS
VL: SNFMLTQPHSVSESPGKTVTISCTRSSGSIASNYVQWYQQRPGSSPTTVIYEDNQRPSGVPDRFSGSIDNSSNSASLTISGLKTEDEADYYCQSYDSSNVVFGGGTKLTVLG
modifications: inserted N-linked glycosylation site (position shown only in a drawing)
As for B5, in the assay with human Interleukin-2 [1], the “YT+ EC50” value amounted to 0.039 nM and the “YT- EC50” value turned out to be 0.79 nM. Binding in the assay with human Interleukin-2 [2] was put at a Kd of 0.82 nM. For the same molecule, in the assay with human Interleukin-2 [3], the koff is 0.00023 s⁻¹ and the association rate constant (kon) worked out at 280000 M⁻¹ s⁻¹. The Kd in the assay with human Interleukin-2 [4] is 9.8 nM.

B6: 602 antibody (wild type anti-human IL-2 antibody) (antibody, mouse IgG2a, kappa)
heavy: DEVQLQESGPGLVAPSQSLSITCTVSGFSLTNYDISWIRQPPGKGLEWLGVIWTGGGTNYNSGFMSRLSITKDNSKSQVFLKMNSLQTDDTAIYYCVRQGRTPYWGQGTLVTVSAAKTTAPSVYPLAPVCGDTTGSSVTLGCLVKGYFPEPVTLTWNSGSLSSGVHTFPAVLQSDLYTLSSSVTVTSSTWPSQSITCNVAHPASSTKVDKKIEPRGPTIKPCPPCKCPAPNLLGGPSVFIFPPKIKDVLMISLSPIVTCVVVDVSEDDPDVQISWFVNNVEVHTAQTQTHREDYNSTLRVVSALPIQHQDWMSGKEFKCKVNNKDLPAPIERTISKPKGSVRAPQVYVLPPPEEEMTKKQVTLTCMVTDFMPEDIYVEWTNNGKTELNYKNTEPVLDSDGSYFMYSKLRVEKKNWVERNSYSCSVVHEGLHNHHTTKSFSRTPGK
light: AGSDIQVTQSPSSLSVSLGDRVTITCKASKDIYNRLAWYQQKPGNAPRLLISGATSLETGVPSRFSGSGSGKDYTLTITSLQTEDVATYYCQQFWGTPYTFGGGTKLEIKRADAAPTVSIFPPSSEQLTSGGASVVCFLNNFYPKDINVKWKIDGSERQNGVLNSWTDQDSKDSTYSMSSTLTLTKDEYERHNSYTCEATHKTSTSPIVKSFNRNEC
By EC50 (read off the curve) is commonly meant the concentration that produces a half-maximal response. Read a low EC50 (read off the curve) as an effect from little substance. Take B6: in the assay with human Interleukin-2 [5], the “YT+ EC50” value is 0.18 nM and the “YT- EC50” value stood at 5.2 nM. This molecule also displayed a Kd in the assay with human Interleukin-2 [6] of 2.5 nM. The same molecule gave a Kd with human Interleukin-2 [7] of 3.2 nM. Further, in the assay with human Interleukin-2 [8], the koff is 0.0019 s⁻¹ and the kon is 780000 M⁻¹ s⁻¹. The “EC50 (read off the curve)” value with human Interleukin-2 [9] was around 3 nM.

B7: 602 M1 glycovariant (N-glycosylation site inserted in the heavy chain) (antibody, mouse IgG2a, kappa)
heavy: DEVQLQESGPGLVAPSQSLSITCTVSGFSLTNYDISWIRQPPGKGLEWLGVIWTGGGTNYNSGFMSRLSITKDNSKSQVFLKMNSLQTDDTAIYYCVRQGRTPYWGNGTLVTVSAAKTTAPSVYPLAPVCGDTTGSSVTLGCLVKGYFPEPVTLTWNSGSLSSGVHTFPAVLQSDLYTLSSSVTVTSSTWPSQSITCNVAHPASSTKVDKKIEPRGPTIKPCPPCKCPAPNLLGGPSVFIFPPKIKDVLMISLSPIVTCVVVDVSEDDPDVQISWFVNNVEVHTAQTQTHREDYNSTLRVVSALPIQHQDWMSGKEFKCKVNNKDLPAPIERTISKPKGSVRAPQVYVLPPPEEEMTKKQVTLTCMVTDFMPEDIYVEWTNNGKTELNYKNTEPVLDSDGSYFMYSKLRVEKKNWVERNSYSCSVVHEGLHNHHTTKSFSRTPGK
light: AGSDIQVTQSPSSLSVSLGDRVTITCKASKDIYNRLAWYQQKPGNAPRLLISGATSLETGVPSRFSGSGSGKDYTLTITSLQTEDVATYYCQQFWGTPYTFGGGTKLEIKRADAAPTVSIFPPSSEQLTSGGASVVCFLNNFYPKDINVKWKIDGSERQNGVLNSWTDQDSKDSTYSMSSTLTLTKDEYERHNSYTCEATHKTSTSPIVKSFNRNEC
modifications: inserted N-linked glycosylation site (position shown only in a drawing)
notes: One amino acid changed in the heavy chain to create a new N-glycosylation site; also called Mutant 1
For the molecule B7, in the assay with human Interleukin-2 [5], the “YT+ EC50” value came to 0.16 nM and the “YT- EC50” value turned out to be 6 nM. The molecule also gave a Kd with human Interleukin-2 [6] of 2.5 nM. The molecule also displayed a Kd in the assay with human Interleukin-2 [7] of 3.2 nM. In the assay with human Interleukin-2 [8], this molecule gave a koff of 0.002 s⁻¹ and a kon of 790000 M⁻¹ s⁻¹.

B8: 602 M8 glycovariant (N-glycosylation site inserted in the light chain) (antibody, mouse IgG2a, kappa)
heavy: DEVQLQESGPGLVAPSQSLSITCTVSGFSLTNYDISWIRQPPGKGLEWLGVIWTGGGTNYNSGFMSRLSITKDNSKSQVFLKMNSLQTDDTAIYYCVRQGRTPYWGQGTLVTVSAAKTTAPSVYPLAPVCGDTTGSSVTLGCLVKGYFPEPVTLTWNSGSLSSGVHTFPAVLQSDLYTLSSSVTVTSSTWPSQSITCNVAHPASSTKVDKKIEPRGPTIKPCPPCKCPAPNLLGGPSVFIFPPKIKDVLMISLSPIVTCVVVDVSEDDPDVQISWFVNNVEVHTAQTQTHREDYNSTLRVVSALPIQHQDWMSGKEFKCKVNNKDLPAPIERTISKPKGSVRAPQVYVLPPPEEEMTKKQVTLTCMVTDFMPEDIYVEWTNNGKTELNYKNTEPVLDSDGSYFMYSKLRVEKKNWVERNSYSCSVVHEGLHNHHTTKSFSRTPGK
light: AGSNITVTQSPSSLSVSLGDRVTITCKASKDIYNRLAWYQQKPGNAPRLLISGATSLETGVPSRFSGSGSGKDYTLTITSLQTEDVATYYCQQFWGTPYTFGGGTKLEIKRADAAPTVSIFPPSSEQLTSGGASVVCFLNNFYPKDINVKWKIDGSERQNGVLNSWTDQDSKDSTYSMSSTLTLTKDEYERHNSYTCEATHKTSTSPIVKSFNRNEC
modifications: inserted N-linked glycosylation site (position shown only in a drawing)
notes: Two amino acids changed in the light chain to create a new N-glycosylation site; also called Mutant 8
In the case of B8, in the assay with human Interleukin-2 [5], the “YT+ EC50” value was determined as 0.17 nM and the “YT- EC50” value came to 4.5 nM. The molecule further came in with a Kd in the assay with human Interleukin-2 [6] of 1.8 nM. The same molecule gave a Kd with human Interleukin-2 [7] of 2.3 nM. Also, in the assay with human Interleukin-2 [8], the koff is 0.0018 s⁻¹ and the kon worked out at 1e+06 M⁻¹ s⁻¹.
